Common to all, as to assay: pulldown
Data set [1] has as its target T1, LmjF.29.1340 (Leishmania major) (UniProt E9ADZ3).
T1 sequence: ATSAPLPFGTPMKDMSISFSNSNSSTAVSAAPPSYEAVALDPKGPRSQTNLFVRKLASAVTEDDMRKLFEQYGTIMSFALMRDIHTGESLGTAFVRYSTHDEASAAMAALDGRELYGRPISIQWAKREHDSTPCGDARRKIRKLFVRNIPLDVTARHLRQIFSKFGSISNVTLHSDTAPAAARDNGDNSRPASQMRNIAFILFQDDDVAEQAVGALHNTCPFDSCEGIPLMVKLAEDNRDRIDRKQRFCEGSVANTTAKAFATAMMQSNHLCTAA
The settings on record: 20 nM protein, 1.5 uM RNA pool; 20 mM HEPES pH 7.8, 70 mM KCl, 10 mM NaCl, 10% glycerol, 2 mM DTT, 0.1 ug/uL BSA; 30 min, 4 C.

The target of data set [2] is T2, LmjF.30.2180 (Leishmania major) (UniProt Q4Q775).
T2 sequence: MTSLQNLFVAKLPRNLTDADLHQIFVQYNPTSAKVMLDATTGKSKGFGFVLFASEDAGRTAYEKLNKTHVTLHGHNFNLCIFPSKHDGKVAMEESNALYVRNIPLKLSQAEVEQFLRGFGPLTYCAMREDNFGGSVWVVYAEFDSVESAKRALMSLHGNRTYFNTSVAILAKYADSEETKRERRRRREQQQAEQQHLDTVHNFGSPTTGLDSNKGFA
The settings on record: 20 nM protein, 1.5 uM RNA pool; 20 mM HEPES pH 7.8, 70 mM KCl, 10 mM NaCl, 10% glycerol, 2 mM DTT, 0.1 ug/uL BSA; 30 min, 4 C.

For data set [3], the target named is T3, CG1316 G229S (Drosophila melanogaster) (UniProt Q7JRD2).
T3 sequence: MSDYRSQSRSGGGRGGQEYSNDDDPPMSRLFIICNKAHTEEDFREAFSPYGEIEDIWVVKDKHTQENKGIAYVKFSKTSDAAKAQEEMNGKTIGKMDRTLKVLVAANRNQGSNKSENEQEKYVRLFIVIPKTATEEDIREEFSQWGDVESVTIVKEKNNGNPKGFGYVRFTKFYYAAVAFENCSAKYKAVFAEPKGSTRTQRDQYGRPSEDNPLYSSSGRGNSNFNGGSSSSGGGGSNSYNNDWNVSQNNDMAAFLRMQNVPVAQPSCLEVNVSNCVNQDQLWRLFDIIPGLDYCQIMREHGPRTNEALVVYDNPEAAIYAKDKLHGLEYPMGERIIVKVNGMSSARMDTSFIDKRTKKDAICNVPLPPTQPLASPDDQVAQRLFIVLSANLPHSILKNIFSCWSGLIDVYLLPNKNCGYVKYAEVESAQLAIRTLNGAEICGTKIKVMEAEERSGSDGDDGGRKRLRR
To be noted: 20 nM protein, 1.5 uM RNA pool; 20 mM HEPES pH 7.8, 70 mM KCl, 10 mM NaCl, 10% glycerol, 2 mM DTT, 0.1 ug/uL BSA; 30 min, 4 C.

The target in data set [4] is T4, NEMVEDRAFT_v1g141408 (Nematostella vectensis) (UniProt A7T170).
T4 sequence: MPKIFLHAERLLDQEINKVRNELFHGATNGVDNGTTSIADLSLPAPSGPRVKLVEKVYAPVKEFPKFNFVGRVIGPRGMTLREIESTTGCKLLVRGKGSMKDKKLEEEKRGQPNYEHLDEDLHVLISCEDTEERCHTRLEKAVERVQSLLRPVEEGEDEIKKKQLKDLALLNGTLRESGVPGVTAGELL
The settings on record: 20 nM protein, 1.5 uM RNA pool; 20 mM HEPES pH 7.8, 70 mM KCl, 10 mM NaCl, 10% glycerol, 2 mM DTT, 0.1 ug/uL BSA; 30 min, 4 C.

The target in data set [5] is T5, SCHCODRAFT_35516 S109T;I250V (Schizophyllum commune) (UniProt A0ACF2EGB7).
T5 sequence: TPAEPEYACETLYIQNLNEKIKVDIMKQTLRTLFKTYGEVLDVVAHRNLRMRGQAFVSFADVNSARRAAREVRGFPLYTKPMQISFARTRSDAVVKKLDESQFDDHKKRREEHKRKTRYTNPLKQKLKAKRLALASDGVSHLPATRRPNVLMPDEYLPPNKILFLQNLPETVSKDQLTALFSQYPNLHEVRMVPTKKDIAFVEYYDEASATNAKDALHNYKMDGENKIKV
To be noted: 20 nM protein, 1.5 uM RNA pool; 20 mM HEPES pH 7.8, 70 mM KCl, 10 mM NaCl, 10% glycerol, 2 mM DTT, 0.1 ug/uL BSA; 30 min, 4 C.

In data set [6] the target is T6, HRP1 (Saccharomyces cerevisiae) (UniProt Q99383).
T6 sequence: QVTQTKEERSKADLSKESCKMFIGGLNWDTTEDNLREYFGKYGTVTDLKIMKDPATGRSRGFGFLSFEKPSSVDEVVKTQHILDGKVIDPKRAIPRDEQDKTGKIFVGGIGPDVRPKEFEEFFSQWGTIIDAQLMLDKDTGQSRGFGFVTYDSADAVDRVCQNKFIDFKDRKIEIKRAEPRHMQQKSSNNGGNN
To be noted: 20 nM protein, 1.5 uM RNA pool; 20 mM HEPES pH 7.8, 70 mM KCl, 10 mM NaCl, 10% glycerol, 2 mM DTT, 0.1 ug/uL BSA; 30 min, 4 C (protocol of this paper; not …); cited from earlier work.

Data set [7] concerns the target T7, SCHCODRAFT_72118 N130T;T236A;D255N (Schizophyllum commune) (UniProt A0ACF2F787).
T7 sequence: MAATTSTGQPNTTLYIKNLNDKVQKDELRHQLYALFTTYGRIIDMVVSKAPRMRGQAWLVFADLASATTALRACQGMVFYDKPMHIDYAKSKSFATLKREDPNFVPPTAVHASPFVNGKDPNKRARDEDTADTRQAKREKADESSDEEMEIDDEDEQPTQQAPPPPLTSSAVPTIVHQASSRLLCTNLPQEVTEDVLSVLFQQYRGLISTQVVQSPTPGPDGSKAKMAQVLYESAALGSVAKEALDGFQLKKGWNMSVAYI
The settings on record: 20 nM protein, 1.5 uM RNA pool; 20 mM HEPES pH 7.8, 70 mM KCl, 10 mM NaCl, 10% glycerol, 2 mM DTT, 0.1 ug/uL BSA; 30 min, 4 C.

In a further data set the target is ELAVL1 (Homo sapiens) (UniProt Q15717). The settings on record: 20 nM protein, 1.5 uM RNA pool; 20 mM HEPES pH 7.8, 70 mM KCl, 10 mM NaCl, 10% glycerol, 2 mM DTT, 0.1 ug/uL BSA; 30 min, 4 C (protocol of this paper; not …); cited from earlier work.
ELAVL1 (Homo sapiens), sequence (Q15717 1-325): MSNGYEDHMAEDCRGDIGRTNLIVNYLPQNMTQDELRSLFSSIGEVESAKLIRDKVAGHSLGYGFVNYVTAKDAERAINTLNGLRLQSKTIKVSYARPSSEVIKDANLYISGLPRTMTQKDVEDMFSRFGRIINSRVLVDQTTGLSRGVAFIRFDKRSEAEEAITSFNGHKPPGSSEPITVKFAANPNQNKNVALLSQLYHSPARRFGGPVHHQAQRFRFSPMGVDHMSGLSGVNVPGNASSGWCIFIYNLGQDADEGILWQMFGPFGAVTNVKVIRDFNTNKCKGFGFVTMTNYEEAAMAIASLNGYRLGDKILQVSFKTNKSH
In data set [8] the target is T8, LmjF.32.2810 (Leishmania major) (UniProt Q4Q4Z4).
T8 sequence: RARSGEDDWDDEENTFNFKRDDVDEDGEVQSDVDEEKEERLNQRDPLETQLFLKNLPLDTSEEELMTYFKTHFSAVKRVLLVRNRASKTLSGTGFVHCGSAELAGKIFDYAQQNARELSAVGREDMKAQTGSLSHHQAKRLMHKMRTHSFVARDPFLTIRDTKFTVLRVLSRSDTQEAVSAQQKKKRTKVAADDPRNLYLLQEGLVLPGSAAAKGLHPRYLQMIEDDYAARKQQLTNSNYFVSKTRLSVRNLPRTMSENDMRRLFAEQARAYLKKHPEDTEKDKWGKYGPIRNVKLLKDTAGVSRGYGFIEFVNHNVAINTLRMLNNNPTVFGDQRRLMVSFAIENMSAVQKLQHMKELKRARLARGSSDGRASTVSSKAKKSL
The settings on record: 20 nM protein, 1.5 uM RNA pool; 20 mM HEPES pH 7.8, 70 mM KCl, 10 mM NaCl, 10% glycerol, 2 mM DTT, 0.1 ug/uL BSA; 30 min, 4 C.

Turning to CAUAGU [RNAcompete motif RNCMPT00712], in data set [1], the binding signal (z-score (mean of top ten 7-mers)) turned out to be 16.4.
In turn, UCAAAA [RNAcompete motif RNCMPT00715] displayed a binding signal (z-score (mean of top ten 7-mers)) in data set [2] of 22.8.
In data set [3], GACNGAC [RNAcompete motif RNCMPT00698] came in with a binding signal (z-score (mean of top ten 7-mers)) of 10.1.
ACUAAC [RNAcompete motif RNCMPT00718] gave a binding signal (z-score (mean of top ten 7-mers)) in [4] of 18.9.
Take UAGCACA [RNAcompete motif RNCMPT00725]: in data set [5], the binding signal (z-score (mean of top ten 7-mers)) turned out to be 10.8.
In the case of UAUGUA [RNAcompete motif RNCMPT00031], the binding signal (z-score (mean of top ten 7-mers)) in [6] was 23.4.
On to UGCACA [RNAcompete motif RNCMPT00723], for which, in data set [7], the binding signal (z-score (mean of top ten 7-mers)) turned out to be 8.86.
UUAUUUU [RNAcompete motif RNCMPT00032]: the binding signal (z-score (mean of top ten 7-mers)) with ELAVL1 (Homo sapiens) is 15.
Substance GUAGNA [RNAcompete motif RNCMPT00716] registered a binding signal (z-score (mean of top ten 7-mers)) in data set [8] of 6.94.

Values taken from article PMC12990809.
